# Test results taken from paper PMC6695400, “Diversity of oligomerization in Drosophila semaphorins suggests a mechanism of functional fine-tuning” (Nature Communications, 2019).
# Like-named read-outs stand apart in the source and are kept apart here.
# T1: Drosophila melanogaster PlexA1–4-mVenus (Drosophila melanogaster, UniProt Q9V491 28-730)
# T1 construct: Plexin A, Drosophila melanogaster, domains 1-4 of the ectodomain, residues 28Q-730T; source: HEK293T, transient transfection, purified (HisTrap, SEC); not shown: mVenus, C-terminal, kept
# T1 sequence (looked up): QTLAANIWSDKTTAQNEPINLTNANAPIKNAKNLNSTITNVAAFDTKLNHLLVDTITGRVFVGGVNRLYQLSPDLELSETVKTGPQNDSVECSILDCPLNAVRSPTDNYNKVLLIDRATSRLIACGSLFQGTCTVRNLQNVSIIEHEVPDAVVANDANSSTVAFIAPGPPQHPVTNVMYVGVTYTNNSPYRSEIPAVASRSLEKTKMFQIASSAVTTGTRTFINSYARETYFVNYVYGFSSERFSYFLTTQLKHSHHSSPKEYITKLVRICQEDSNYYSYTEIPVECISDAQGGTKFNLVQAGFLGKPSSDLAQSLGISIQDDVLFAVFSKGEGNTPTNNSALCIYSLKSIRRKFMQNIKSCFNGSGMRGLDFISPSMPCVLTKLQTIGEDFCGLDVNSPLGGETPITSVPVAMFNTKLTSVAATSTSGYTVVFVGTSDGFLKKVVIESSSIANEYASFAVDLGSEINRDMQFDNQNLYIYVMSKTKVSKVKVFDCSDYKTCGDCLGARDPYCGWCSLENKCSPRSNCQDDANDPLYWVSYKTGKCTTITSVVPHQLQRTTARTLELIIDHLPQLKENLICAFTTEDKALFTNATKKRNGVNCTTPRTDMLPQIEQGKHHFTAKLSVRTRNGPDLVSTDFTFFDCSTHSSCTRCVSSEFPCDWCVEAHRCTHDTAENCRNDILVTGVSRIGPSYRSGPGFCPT
# Tests used:
# [1] = molecular target: Drosophila melanogaster PlexB1–4-mVenus (Drosophila melanogaster) (UniProt Q9V4A7); experiment: MST; plexin-mVenus kept constant, unlabelled semaphorin titrated (1:1 dilution series); 25 °C; 15 mM HEPES pH 7.4, 150 mM NaCl, 2 mM CaCl2, 0.005% Tween-20; 1 h incubation at room temperature; apparent Kd
# Drosophila melanogaster PlexB1–4-mVenus (Drosophila melanogaster), sequence (Q9V4A7 35-730): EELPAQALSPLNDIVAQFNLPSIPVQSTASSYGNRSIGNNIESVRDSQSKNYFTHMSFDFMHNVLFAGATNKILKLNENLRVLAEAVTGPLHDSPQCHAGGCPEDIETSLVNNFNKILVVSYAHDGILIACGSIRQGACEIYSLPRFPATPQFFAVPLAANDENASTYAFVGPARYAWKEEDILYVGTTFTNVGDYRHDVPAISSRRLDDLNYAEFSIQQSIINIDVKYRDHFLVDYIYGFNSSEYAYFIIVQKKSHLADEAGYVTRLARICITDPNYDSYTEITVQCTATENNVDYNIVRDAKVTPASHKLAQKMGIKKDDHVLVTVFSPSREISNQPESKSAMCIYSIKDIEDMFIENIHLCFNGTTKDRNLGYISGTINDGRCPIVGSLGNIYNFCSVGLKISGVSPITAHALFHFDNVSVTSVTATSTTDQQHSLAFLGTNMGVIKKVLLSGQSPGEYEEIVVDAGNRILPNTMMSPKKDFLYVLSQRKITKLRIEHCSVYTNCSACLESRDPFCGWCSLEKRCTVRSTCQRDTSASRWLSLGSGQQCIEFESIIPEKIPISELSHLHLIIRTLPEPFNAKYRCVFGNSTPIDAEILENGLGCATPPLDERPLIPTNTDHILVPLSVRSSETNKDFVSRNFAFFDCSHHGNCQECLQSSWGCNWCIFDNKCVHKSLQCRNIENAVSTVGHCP
# [2] = molecular target: Sema2b_(full) with the dimerization cysteine mutated to serine (Drosophila melanogaster); experiment: SEC-MALS; Superdex 200 Increase 10/300, 15 mM HEPES pH 7.4, 150 mM NaCl; with SDS-PAGE under reducing and non-reducing conditions; initial concentrations up to 2 mg/ml; monomer to dimer
# [3] = molecular target: Drosophila melanogaster full-length secreted semaphorin-2b (Sema2b_(full)) (Drosophila melanogaster); experiment: as above
# [4] = molecular target: T1, Drosophila melanogaster PlexA1–4-mVenus; experiment: MST; plexin-mVenus kept constant, unlabelled semaphorin titrated (1:1 dilution series); 25 °C; 15 mM HEPES pH 7.4, 150 mM NaCl, 2 mM CaCl2, 0.005% Tween-20; 1 h incubation at room temperature; apparent Kd
# [5] = molecular target: Drosophila melanogaster semaphorin-1a full-length ectodomain (Sema1a_(ecto)) (Drosophila melanogaster); experiment: SEC-MALS; Superdex 200 Increase 10/300, 15 mM HEPES pH 7.4, 150 mM NaCl; with SDS-PAGE under reducing and non-reducing conditions; initial concentrations up to 2 mg/ml; monomer to dimer
# [6] = molecular target: the molecule itself; experiment: as above
# [7] = molecular target: Drosophila melanogaster full-length secreted semaphorin-2b (Sema2b_(full)) (Drosophila melanogaster); experiment: SEC-MALS; co-expressed heterodimer purified by HisTrap, StrepTactin and SEC; Superdex 200 Increase 10/300, 15 mM HEPES pH 7.4, 150 mM NaCl; with SDS-PAGE under reducing and non-reducing conditions
molecule,measurement,setting,value
"Sema2a/2b heterodimer (Sema2a_(full)-TwinStrep with Sema2b_(full)-His6, disulfide-linked) (from UniProt Q24323 26-724) (complex)",Kd,[1],13 nM
Sema2b_(full) with the dimerization cysteine mutated to serine (ligand),stoichiometry N,[2],2
Drosophila melanogaster full-length secreted semaphorin-2b (Sema2b_(full)) (ligand),stoichiometry N,[3],2
same,Kd,[1],3 nM
Fc-tagged dimerized Sema1a_(ecto) (Sema1a_(ecto)-Fc) (from UniProt Q24322 21-602) (Fc fusion),Kd,[4],141 nM
Drosophila melanogaster semaphorin-1a full-length ectodomain (Sema1a_(ecto)) (domain or fragment),stoichiometry N,[5],2
"Drosophila melanogaster full-length secreted semaphorin-2a (Sema2a_(full)) (ligand, UniProt Q24323 26-724, looked up, Semaphorin-2a, Drosophila melanogaster, residues 26D-724V; Disulfide-linked dimer in solution; source: HEK293T (37 °C), transient transfection, purified (HisTrap, SEC)) DYENTWNFYYERPCCTGNDQGNNNYGKHGADHVREFNCGKLYYRTFHMNEDRDTLYVGAMDRVFRVNLQNISSSNCNRDVINLEPTRDDVVSCVSKGKSQIFDCKNHVRVIQSMDQGDRLYVCGTNAHNPKDYVIYANLTHLPRSEYVIGVGLGIAKCPYDPLDNSTAIYVENGNPGGLPGLYSGTNAEFTKADTVIFRTDLYNTSAKRLEYKFKRTLKYDSKWLDKPNFVGSFDIGEYVYFFFRETAVEYINCGKAVYSRIARVCKKDVGGKNLLAHNWATYLKARLNCSISGEFPFYFNEIQSVYQLPSDKSRFFATFTTSTNGLIGSAVCSFHINEIQAAFNGKFKEQSSSNSAWLPVLNSRVPEPRPGTCVNDTSNLPDTVLNFIRSHPLMDKAVNHEHNNPVYYKRDLVFTKLVVDKIRIDILNQEYIVYYVGTNLGRIYKIVQYYRNGESLSKLLDIFEVAPNEAIQVMEISQTRKSLYIGTDHRIKQIDLAMCNRRYDNCFRCVRDPYCGWDKEANTCRPYELDLLQDVANETSDICDSSVLKKKIVVTYGQSVHLGCFVKIPEVLKNEQVTWYHHSKDKGRYEIRYSPTKYIETTERGLVVVSVNEADGGRYDCHLGGSLLCSYNITVDAHRCTPPNKSNDYQKIYSDWCHEFEKYKTAMKSWEKKQAQCSTRQNFSSNQHPNEIFRKPNV",stoichiometry N,[6],2
same,stoichiometry N,[7],1
"Sema1b_(ecto) with phenylalanine 254 mutated to cysteine (domain or fragment, Drosophila melanogaster, UniProt Q7KK54 37-659, looked up, Semaphorin-1b, Drosophila melanogaster, ectodomain, residues 37D-659S, F254C; also called Sema1b_(ecto) F254C; source: HEK293T, transient transfection, purified (HisTrap, SEC)) DVKPDLQTKQDKVLAHFIGNSTDYFKILDHNDEFVLVGAKDVIYNVSLNGLKEIARLEWHSTDADRELCALKGKHEWDCHNYLRVYALRPNGEVLLCGTNSYKPRCRHYTPVEVSSEEAGSAGHAHAMRYEVSRDVEAQGLCPYSPAHNSTYAFADGHLYSATVADFSGGDPLIYRENLRTEQYDLKQLNQPDFVGAIERNGYVLFFFRELSMEVMNCGKAVYSRVARVCKNDRGGPYSHGKSWTSFLKARLNCSVPGEFPFYFDEIQAISPIVESGSKSLIYAVFTTSVNAIPGSAVCAFNVDDILAAFDGEFKSQKDSQSHWLPVEREQVPKPRPGQCVEDSRTLTSIAVNFIKNHPLMEEAVPAVHGRPLLTKVNLHHRLTAIAVHPQVKSLSGAYYDVIYSGTDDGKVTKFINILSTHPNSTVDRLKTVVISEMQVLPLGTPIRELVISTSKNSLVVVSDGSLVSVPLHHCSHIVDCLGCLSLQDPICAWDLQTHECKNLATSQHKFGTKTYLQSLNSTKKAAALLCPHIPRDAPGAETVSFVTMAPPPTEEQKLLYSNVGSSQGNQPSLEQQPTGGDDFGLNKITLTSMDPDDIMPNLNDPQKSTASVDEIKYASTPS",stoichiometry N,[6],2
"Sema2a_(full) with the dimerization cysteine (Cys279) mutated to serine (ligand, Drosophila melanogaster, UniProt Q24323 26-724, looked up, Semaphorin-2a, Drosophila melanogaster, residues 26D-724V, Cys279 to serine; also called Sema2a_(full) Cys to Ser mutant; source: HEK293T, transient transfection, purified (HisTrap, SEC)) DYENTWNFYYERPCCTGNDQGNNNYGKHGADHVREFNCGKLYYRTFHMNEDRDTLYVGAMDRVFRVNLQNISSSNCNRDVINLEPTRDDVVSCVSKGKSQIFDCKNHVRVIQSMDQGDRLYVCGTNAHNPKDYVIYANLTHLPRSEYVIGVGLGIAKCPYDPLDNSTAIYVENGNPGGLPGLYSGTNAEFTKADTVIFRTDLYNTSAKRLEYKFKRTLKYDSKWLDKPNFVGSFDIGEYVYFFFRETAVEYINSGKAVYSRIARVCKKDVGGKNLLAHNWATYLKARLNCSISGEFPFYFNEIQSVYQLPSDKSRFFATFTTSTNGLIGSAVCSFHINEIQAAFNGKFKEQSSSNSAWLPVLNSRVPEPRPGTCVNDTSNLPDTVLNFIRSHPLMDKAVNHEHNNPVYYKRDLVFTKLVVDKIRIDILNQEYIVYYVGTNLGRIYKIVQYYRNGESLSKLLDIFEVAPNEAIQVMEISQTRKSLYIGTDHRIKQIDLAMCNRRYDNCFRCVRDPYCGWDKEANTCRPYELDLLQDVANETSDICDSSVLKKKIVVTYGQSVHLGCFVKIPEVLKNEQVTWYHHSKDKGRYEIRYSPTKYIETTERGLVVVSVNEADGGRYDCHLGGSLLCSYNITVDAHRCTPPNKSNDYQKIYSDWCHEFEKYKTAMKSWEKKQAQCSTRQNFSSNQHPNEIFRKPNV",stoichiometry N,[6],2
"Drosophila melanogaster semaphorin-1b full-length ectodomain (Sema1b_(ecto)) (domain or fragment, UniProt Q7KK54 37-659, looked up, Semaphorin-1b, Drosophila melanogaster, ectodomain, residues 37D-659S; Monomer in solution; source: HEK293T (30 °C), transient transfection, purified (HisTrap, SEC)) DVKPDLQTKQDKVLAHFIGNSTDYFKILDHNDEFVLVGAKDVIYNVSLNGLKEIARLEWHSTDADRELCALKGKHEWDCHNYLRVYALRPNGEVLLCGTNSYKPRCRHYTPVEVSSEEAGSAGHAHAMRYEVSRDVEAQGLCPYSPAHNSTYAFADGHLYSATVADFSGGDPLIYRENLRTEQYDLKQLNQPDFVGAIERNGYVLFFFRELSMEVMNFGKAVYSRVARVCKNDRGGPYSHGKSWTSFLKARLNCSVPGEFPFYFDEIQAISPIVESGSKSLIYAVFTTSVNAIPGSAVCAFNVDDILAAFDGEFKSQKDSQSHWLPVEREQVPKPRPGQCVEDSRTLTSIAVNFIKNHPLMEEAVPAVHGRPLLTKVNLHHRLTAIAVHPQVKSLSGAYYDVIYSGTDDGKVTKFINILSTHPNSTVDRLKTVVISEMQVLPLGTPIRELVISTSKNSLVVVSDGSLVSVPLHHCSHIVDCLGCLSLQDPICAWDLQTHECKNLATSQHKFGTKTYLQSLNSTKKAAALLCPHIPRDAPGAETVSFVTMAPPPTEEQKLLYSNVGSSQGNQPSLEQQPTGGDDFGLNKITLTSMDPDDIMPNLNDPQKSTASVDEIKYASTPS",Kd,[4]; both partners purified,586 ± 134 nM
